Test results reported in patent publication US20140187491A1 (Bayer, published 2014).
Positions count from the first letter of the chain named. Ends that are not written are not given here.

B1: human Relaxin 3 (ligand)
chain 1: DVLAGLSSSCCKWGCSKSEISSLC
chain 2: RAAPYGVRLCGREFIRAVIFTCGGSRW
B2: scR7 (ligand)
chain: EQKLISEEDLQLYSALANKCCHVGCTKRSLARFCGGGSGGSWMEEVIKLCGRELVRAQIAICGMSTWS
B3: scR14 (ligand)
chain: DVLAGLSSSCCKWGCSKSEISSLCGGGSGGGSGRAAPYGVRLCGREFIRAVIFTCGGSRW
modifications: ends and bridges not checked; cysteine pairing not given here
B4: scR11 (ligand)
chain: QLYSALANKCCHVGCTKRSLARFCGGGSGCGGSGSWMEEVIKLCGRELVRAQIAICGMSTWS
B5: scR12 (ligand)
chain: B4 chain with C30K
B6: scR8 (ligand)
chain: EQKLISEEDLQLYSALANKCCHVGCTKRSLARFCGGGSGGGSGGGSSWMEEVIKLCGRELVRAQIAICGMSTWS
B7: scR4 (ligand)
chain: EQKLISEEDLQLYSALANKCCHVGCTKRSLARFCGGGSGGGSGSWMEEVIKLCGRELVRAQIAICGMSTWSYPYDVPDYAHHHHHH
B8: scR5 (ligand)
chain: EQKLISEEDLQLYSALANKCCHVGCTKRSLARFCGGGSGGGSGGGSWMEEVIKLCGRELVRAQIAICGMSTWSYPYDVPDYAHHHHHH
B9: scR10 (ligand)
chain: EQKLISEEDLQLYSALANKCCHVGCTKRSLARFCGGGSGGGSGGGSGGSWMEEVIKLCGRELVRAQIAICGMSTWS
B10: scR15 (ligand)
chain: EQKLISEEDLDVLAGLSSSCCKWGCSKSEISSLCGGGSGGGSGRAAPYGVRLCGREFIRAVIFTCGGSRW
B11: scR3 (ligand)
chain: EQKLISEEDLQLYSALANKCCHVGCTKRSLARFCGGGSGGGSWMEEVIKLCGRELVRAQIAICGMSTWSYPYDVPDYAHHHHHH
B12: scR9 (ligand)
chain: EQKLISEEDLQLYSALANKCCHVGCTKRSLARFCGGGSGGGSGGGSGSWMEEVIKLCGRELVRAQIAICGMSTWS
B13: human Relaxin 2 (ligand)
chain 1: QLYSALANKCCHVGCTKRSLARFC
chain 2: SWMEEVIKLCGRELVRAQIAICGMSTWS
B14: scR17 (ligand)
chain: EQKLISEEDLDVLAGLSSSCCKWGCSKSEISSLCGGGSGGGSGSWMEEVIKLCGRELVRAQIAICGMSTWS
B15: scR-Fc 17 (Fc fusion)
chain: QLYSALANKCCHVGCTKRSLARFCGGGSGGGSGSWMEEVIKLCGRELVRAQIAICGMSTWSGSGSGSPTCPTCHKCPVPELLGGPSVFIFPPKPKDILLISQNAKVTCVVVDVSEEEPDVQFSWFVNNVEVHTAQTQPREEQYNSTFRVVSALPIQHQDWMSGKEFKCKVNNKALPSPIEKTISKPKGLVRKPQVYVMGPPTEQLTEQTVSLTCLTSGFLPNDIGVEWTSNGHIEKNYKNTEPVMDSDGSFFMYSKLNVERSRWDSRAPFVCSVVHEGLHNHHVEKSISRPPGK
B16: scR-Fc 13 (Fc fusion)
chain: HHHHHHPTCPTCHKCPVPELLGGPSVFIFPPKPKDILLISQNAKVTCVVVDVSEEEPDVQFSWFVNNVEVHTAQTQPREEQYNSTFRVVSALPIQHQDWMSGKEFKCKVNNKALPSPIEKTISKPKGLVRKPQVYVMGPPTEQLTEQTVSLTCLTSGFLPNDIGVEWTSNGHIEKNYKNTEPVMDSDGSFFMYSKLNVERSRWDSRAPFVCSVVHEGLHNHHVEKSISRPPGKGGSGGSGGSPQLYSALANKCCHVGCTKRSLARFCGGGSGGGSGSWMEEVIKLCGRELVRAQIAICGMSTWS
B17: scR-Fc 9 (Fc fusion)
chain: QLYSALANKCCHVGCTKRSLARFCGGGSGGGSGSWMEEVIKLCGRELVRAQIAICGMSTWSGGSGGSPTCPTCHKCPVPELLGGPSVFIFPPKPKDILLISQNAKVTCVVVDVSEEEPDVQFSWFVNNVEVHTAQTQPREEQYNSTFRVVSALPIQHQDWMSGKEFKCKVNNKALPSPIEKTISKPKGLVRKPQVYVMGPPTEQLTEQTVSLTCLTSGFLPNDIGVEWTSNGHIEKNYKNTEPVMDSDGSFFMYSKLNVERSRWDSRAPFVCSVVHEGLHNHHVEKSISRPPGKHHHHHH
B18: scR-Fc 12 (Fc fusion)
chain: HHHHHHPTCPTCHKCPVPELLGGPSVFIFPPKPKDILLISQNAKVTCVVVDVSEEEPDVQFSWFVNNVEVHTAQTQPREEQYNSTFRVVSALPIQHQDWMSGKEFKCKVNNKALPSPIEKTISKPKGLVRKPQVYVMGPPTEQLTEQTVSLTCLTSGFLPNDIGVEWTSNGHIEKNYKNTEPVMDSDGSFFMYSKLNVERSRWDSRAPFVCSVVHEGLHNHHVEKSISRPPGKGGSGGSPQLYSALANKCCHVGCTKRSLARFCGGGSGGGSGSWMEEVIKLCGRELVRAQIAICGMSTWS
B19: scR-Var1 (ligand)
chain: QLYSALANKCCHVGCTKRSLARFCGGGSGGGSGSWMEEVIKLCGRELVRAQIAICGMSTWSGGSGCG
B20: scR-Fc 8 (Fc fusion)
chain: QLYSALANKCCHVGCTKRSLARFCGGGSGGGSGSWMEEVIKLCGRELVRAQIAICGMSTWSGGSPTCPTCHKCPVPELLGGPSVFIFPPKPKDILLISQNAKVTCVVVDVSEEEPDVQFSWFVNNVEVHTAQTQPREEQYNSTFRVVSALPIQHQDWMSGKEFKCKVNNKALPSPIEKTISKPKGLVRKPQVYVMGPPTEQLTEQTVSLTCLTSGFLPNDIGVEWTSNGHIEKNYKNTEPVMDSDGSFFMYSKLNVERSRWDSRAPFVCSVVHEGLHNHHVEKSISRPPGKHHHHHH
B21: scR-Fc 11 (Fc fusion)
chain: HHHHHHPTCPTCHKCPVPELLGGPSVFIFPPKPKDILLISQNAKVTCVVVDVSEEEPDVQFSWFVNNVEVHTAQTQPREEQYNSTFRVVSALPIQHQDWMSGKEFKCKVNNKALPSPIEKTISKPKGLVRKPQVYVMGPPTEQLTEQTVSLTCLTSGFLPNDIGVEWTSNGHIEKNYKNTEPVMDSDGSFFMYSKLNVERSRWDSRAPFVCSVVHEGLHNHHVEKSISRPPGKGGSPQLYSALANKCCHVGCTKRSLARFCGGGSGGGSGSWMEEVIKLCGRELVRAQIAICGMSTWS
B22: scR-Fc 10 (Fc fusion)
chain: QLYSALANKCCHVGCTKRSLARFCGGGSGGGSGSWMEEVIKLCGRELVRAQIAICGMSTWSGGSGGSGGSPTCPTCHKCPVPELLGGPSVFIFPPKPKDILLISQNAKVTCVVVDVSEEEPDVQFSWFVNNVEVHTAQTQPREEQYNSTFRVVSALPIQHQDWMSGKEFKCKVNNKALPSPIEKTISKPKGLVRKPQVYVMGPPTEQLTEQTVSLTCLTSGFLPNDIGVEWTSNGHIEKNYKNTEPVMDSDGSFFMYSKLNVERSRWDSRAPFVCSVVHEGLHNHHVEKSISRPPGKHHHHHH
B23: scR-Var2 (ligand)
chain: GCGSGGQLYSALANKCCHVGCTKRSLARFCGGGSGGGSGSWMEEVIKLCGRELVRAQIAICGMSTWS

What follows are binders tested against T1, human LGR7/RXFP1 receptor (human, UniProt Q9HBX9 1-757) (assay: cell-based or functional assay).
T1 sequence (looked up): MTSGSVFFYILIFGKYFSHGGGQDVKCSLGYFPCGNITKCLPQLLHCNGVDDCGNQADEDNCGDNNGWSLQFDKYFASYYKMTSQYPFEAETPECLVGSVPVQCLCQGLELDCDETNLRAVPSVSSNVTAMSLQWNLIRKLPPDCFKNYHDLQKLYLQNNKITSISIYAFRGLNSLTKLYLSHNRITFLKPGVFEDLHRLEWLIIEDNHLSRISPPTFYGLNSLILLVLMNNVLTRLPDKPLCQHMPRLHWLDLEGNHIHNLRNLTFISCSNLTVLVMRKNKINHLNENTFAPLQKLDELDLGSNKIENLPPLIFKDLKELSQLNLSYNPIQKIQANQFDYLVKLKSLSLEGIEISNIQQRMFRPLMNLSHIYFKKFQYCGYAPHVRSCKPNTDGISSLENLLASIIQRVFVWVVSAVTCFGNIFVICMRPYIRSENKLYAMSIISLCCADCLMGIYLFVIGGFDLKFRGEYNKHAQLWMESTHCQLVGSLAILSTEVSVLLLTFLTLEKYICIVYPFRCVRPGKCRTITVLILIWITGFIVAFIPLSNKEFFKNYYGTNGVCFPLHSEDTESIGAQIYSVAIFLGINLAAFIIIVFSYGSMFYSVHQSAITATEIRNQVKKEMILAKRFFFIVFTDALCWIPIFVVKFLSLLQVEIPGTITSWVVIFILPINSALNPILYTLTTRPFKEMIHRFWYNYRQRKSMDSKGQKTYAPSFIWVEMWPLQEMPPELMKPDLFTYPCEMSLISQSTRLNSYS

| Binder | EC50 (M), CRE-luciferase reporter in CHO-CRE-LGR7 cells [M] |
| --- | --- |
| B1 | 2.3e-09 |
| B2 | 5.3e-08 |
| B3 | 5.9e-10 |
| B4 | 2.5e-08 |
| B5 | 3.6e-08 |
| B6 | 2.4e-08 |
| B7 | 3.4e-11 |
| B8 | 3.7e-11 |
| B9 | 4.4e-08 |
| B10 | 6.2e-10 |
| B11 | 7.7e-11 |
| B12 | 1.1e-07 |
| B13 | 2.6e-11 |
| B14 | 1.3e-08 |

Molecular target: T1, human LGR7/RXFP1 receptor
Assay: cell-based or functional assay
Remark: another data set of the same source

| Binder | EC50 (M), CRE-luciferase reporter in CHO-CRE-LGR7 cells [M] |
| --- | --- |
| B15 | 2.5e-09 |
| B16 | 8.9e-10 |
| B17 | 9.9e-09 |
| B18 | 9.5e-10 |
| B19 | 1.1e-07 |
| B20 | 7.2e-09 |
| B21 | 1.2e-09 |
| B22 | 4.8e-09 |
| B13 | 3.5e-11 |
| B23 | 4.2e-08 |
